Earlier results on one substance are cited in publication PMC8316261.

The target in the series is C5aR (Homo sapiens) (UniProt P21730).
Sequence of UniProt P21730 (P21730 whole entry): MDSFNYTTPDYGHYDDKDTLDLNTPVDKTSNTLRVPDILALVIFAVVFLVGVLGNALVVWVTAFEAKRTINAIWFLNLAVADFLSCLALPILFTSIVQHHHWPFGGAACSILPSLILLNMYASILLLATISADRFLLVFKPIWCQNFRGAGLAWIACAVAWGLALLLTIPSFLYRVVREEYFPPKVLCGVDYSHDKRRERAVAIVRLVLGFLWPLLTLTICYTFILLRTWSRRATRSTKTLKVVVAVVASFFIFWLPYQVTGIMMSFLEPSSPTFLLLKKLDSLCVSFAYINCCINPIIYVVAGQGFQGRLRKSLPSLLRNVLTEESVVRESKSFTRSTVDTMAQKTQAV

As for C5a C5a (from UniProt P01031), the Kd is 1 nM.

One may read the Kd as the constant that tells how readily two partners part at equilibrium.
